Test results reported in paper PMC4716841, “Attenuation of AMPK signaling by ROQUIN promotes T follicular helper cell formation” (eLife, 2015).

Biological target: T1, AMPKα1, endogenous (mouse), catalytic α1 subunit of adenosine monophosphate-activated protein kinase (mouse (endogenous in primary C57BL/6 …, UniProt Q5EG47 1-559))
T1 construct: AMPK catalytic α1 subunit, encoded by Prkaa1, endogenous in mouse cells; In the cells it may stand with AMPK β and γ subunits; also called α1 subunit of AMPK; encoded by Prkaa1; source: endogenous, primary C57BL/6 MEFs (in situ); endogenous, EL4 cell lysate
Test: proximity ligation; in situ PLA on primary C57BL/6 MEFs, endogenous proteins; goat anti-AMPKα1 (C20) with rabbit anti-ROQUIN, overnight at 4°C; resting cells or 1 mM arsenite for 1 hr; control PLA GFP:AMPKα1
Conditions: partners not purified

T1 sequence (Q5EG47 whole entry): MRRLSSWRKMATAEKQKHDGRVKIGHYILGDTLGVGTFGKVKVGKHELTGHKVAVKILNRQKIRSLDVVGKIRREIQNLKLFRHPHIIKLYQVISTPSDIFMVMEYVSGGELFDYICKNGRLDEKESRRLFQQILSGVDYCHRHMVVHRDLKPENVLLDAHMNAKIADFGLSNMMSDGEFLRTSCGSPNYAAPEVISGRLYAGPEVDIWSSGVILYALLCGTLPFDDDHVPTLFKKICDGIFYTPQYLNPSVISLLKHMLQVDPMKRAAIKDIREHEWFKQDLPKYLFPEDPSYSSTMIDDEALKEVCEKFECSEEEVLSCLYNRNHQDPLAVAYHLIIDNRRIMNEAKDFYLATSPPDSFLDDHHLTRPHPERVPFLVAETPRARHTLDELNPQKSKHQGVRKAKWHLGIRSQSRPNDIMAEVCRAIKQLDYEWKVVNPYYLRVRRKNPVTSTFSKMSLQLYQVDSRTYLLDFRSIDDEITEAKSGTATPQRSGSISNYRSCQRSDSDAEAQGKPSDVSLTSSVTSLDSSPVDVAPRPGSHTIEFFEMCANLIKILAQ

B1: ROQUIN, endogenous (mouse) (natural protein, UniProt Q4VGL6 1-1130, looked up)
chain: MPVQAPQWTDFLSCPICTQTFDETIRKPISLGCGHTVCKMCLNKLHRKACPFDQTTINTDIELLPVNSALLQLVGAQIPEQQPITLCSGVEDTKHYEEAKKCVEELALYLKPLSSARGVGLNSTTQSVLSRPMQRKLVTLVHCQLVEEEGRIRAMRAARSLGERTVTELILQHQNPQQLSSNLWAAVRARGCQFLGPAMQEEALKLVLLALEDGSALSRKVLVLFVVQRLEPRFPQASKTSIGHVVQLLYRASCFKVTKRDEDSSLMQLKEEFRTYEALRREHDSQIVQIAMEAGLRIAPDQWSSLLYGDQSHKSHMQSIIDKLQTPASFAQSVQELTIALQRTGDPANLNRLRPHLELLANIDPSPDAPPPTWEQLENGLVAVRTVVHGLVDYIQNHSKKGADQQQPPQHSKYKTYMCRDMKQRGGCPRGASCTFAHSQEELEKFRKMNKRLVPRRPLSASLGQLNEVGLPSAPILSDESAVDLSNRKPPALPNGIASSGSTVTQLIPRGTDPSFDSSLKPVKLDHLSSSAPGSPPDLLESAPKSISALPVNPHPVPPRGPTDLPPMPVTKPIQMVPRGSQLYPAQQADVYYQDPRGSAPAFETAPYQQGMYYTPPPCVSRFVRPPPSAPEPGPPYLDHYSPYLQDRVINSQYGTQPQQYPPMYPAHYDGRRVYPAQSYTREEMFRESPIPIDIPSAAVPSYVPESRERYQQVEGYYPVAPHPAQIRPSYPRDPPYSRLPPPQPHPSLDELHRRRKEIMAQLEERKVISPPPFAPSPTLPPAFHPEEFLDEDLKVAGKYKANDYSQYSPWSCDTIGSYIGTKDAKPKDVVAAGSVEMMNVESKGTREQRLDLQRRAVETSDDDLIPFGDRPTVSRFGAISRTSKTLYQGAGPLQAIAPQGAPTKSINISDYSAYGAHGGWGDSPYSPHANIPPQGHFIEREKMSMAEVASHGKPLLSAEREQLRLELQQLNHQISQQTQLRGLEAVSNRLVLQREVNTLASQPQPPQLPPKWPGMISSEQLSLELHQVEREIGKRTRELSMENQCSVDMKSKLGTSKQAENGQPEPQNKIRTEDLTLTFSDVPNGSALTQENLSLLSNKTSSLNLSEDSEGGGDNNDSQRSGVVSNSAP
notes: ROQUIN (ROQUIN1), encoded by Rc3h1, endogenous in mouse cells; also called ROQUIN1; encoded by Rc3h1; source: endogenous, primary C57BL/6 MEFs (in situ); endogenous, EL4 cell lysate
Q: How did the “fold PLA frequency over the ROQUIN:AGO2 PLA of earlier work” value turn out when B1 was run?
A: The value was at least 15 fold.
